Test: label from the status in PepcDB records
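Further: failed if final PepcDB status was selected cloned or expressed and not failed if soluble or beyond.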

With “MDKKEYSETFYHPYKPYDIQVQLMETVYRVLSEGKKIAILESPTGTGKTLSLICATMTWLRMNKADIFTRMETNIKTNEDDSENLSDDEPDWVIDTYRKSVLQEKVDLLNDYEKHLNEINTTSCKQLKTMCDLDKEHGRYKSVDPLRKKRKGARHLDVSLEEQDFIPRPYESDSENNDTSKSTRGGRISDKDYKLSELNSQIITLLDKIDGKVSRDPNNGDRFDVTNQNPVKIYYASRTYSQLGQFTSQLRLPSFPSSFRDKVPDEKVKYLPLASKKQLCINPKVMKWKTLEAINDACADLRHSKEGCIFYQNTNEWRHCPDTLALRDMIFSEIQDIEDLVPLGKSLGICPYYASREALPIAEVVTLPYQYLLSESTRSSLQINLENSIVIIDEAHNLIETINSIYSSQISLEDLKNCHKGIVTYFNKFKSRLNPGNRVNLLKLNSLLMTLIQFIVKNFKKIGQEIDPNDMFTGSNIDTLNIHKLLRYIKVSKIAYKIDTYNQALKEEESSKNENPIKETHKKSVSSQPLLFKVSQFLYCLTNLTSEGQFFFEKNYSIKYMLLEPSKPFESILNQAKCVVLAGGTMEPMSEFLSNLLPEVPSEDITTLSCNHVIPKENLQTYITNQPELEFTFEKRMSPSLVNNHLFQFFVDLSKAVPKKGGIVAFFPSYQYLAHVIQCWKQNDRFATLNNVRKIFYEAKDGDDILSGYSDSVAEGRGSLLLAIVGGKLSEGINFQDDLCRAVVMVGLPFPNIFSGELIVKRKHLAAKIMKSGGTEEEASRATKEFMENICMKAVNQSVGRAIRHANDYANIYLLDVRYNRPNFRKKLSRWVQDSINSEHTTHQVISSTRKFFSMRSLNSR” the protein production was “failed”.
In the case of “MAVLLSSFSPLGINIDMNKNLGVSYSSFPQIHLFKGSTPLRVRTFVVSSRKNSGTGLASEDKKLLLERYGYDANDDFGSQSKKARRKEEKMSGRNSQQVEEVVVVQPRTTHRLLQVLAGTAKRKKLLSLKGMDVRPMMEVVKGAAFGILQAAGGCPTSLRPGRWLDLYSGTGSVGIEAISRGCSEAHFVEMDPWVVSNVLQPNLEHTGFVDASVIHTARVENFLERADKLVGKDGVFDYISVTPPYMEVDYEVLMDQIAKSPAIGENTFILVEYPSRTTMLDSCGCLEKMTDRRFGRTHLAIYGPKWAQKPRKS”, the protein production is reported as “failed”.
With “MSLDLPEGHPLKTLYQENKEIMKDAEMLNLYAKTLATTKDERMREEILGVLEEIVSSLRMVGFTHYNREEMLIFPYIERRGLTVIATVLWTKHDEIRAMIKQLAELLRKREEMPWEEFVEKFKAKAGEVAFALSDMVFRENNIFYPTLKALLSEGEWKAIKMQEDEIGYYKVKPPEWDPGEDVKPLHPWEINPELNVEQLLTLPKEVQQALRGQPLEFDKTQLKREEDIDLGTGYLNIEELKAIFEALPVDVTFIDKDDRVRFFSPGERIFTRTPSVLGRPVQLCHPPKSVYVVNKILKAFKEGRKKEATFWLRLREKYVYIKYVPLFNEKGEYIGTLEMTMDIAPYKKIEGEKRLLDWRDEGHITITTDPNSSSVDKLAAALEHHHHHH” the protein production was “not failed”.
For “MHLATLASGSSGNSIVVGHEKRNFLVDCGISLKATLHNLAILDIAPSEIEGIFITHEHSDHIKGVGAVARKLKIPIYASAKIWDELNPSIGKLKDEQRVVVKDAFTCAGLRVRVFPTSHDSQESFGVRVEVEQPVKGRSRAIGIATDTGIVTEEMHQALKGCDALVVEANHDREMLWQGGYPWYLKKRISGNYGHLENSQLAEGLLQWIEGNTQRIVLAHLSDENNTPETALSTILRILKESRVAKENRDLRLRVAPRYTPHELIVLEEY”, the protein production was “failed”.
For “PPSTLIGPGDDAALVRADDGRVAVSADMLVQDRHFRLDWSSPRDVGRKAVAQNAADVAAMGARPTAFLVSLGLPPDTSIDVADGISAAIGESAEELGAGVVGGDLVQAGQVVISVTVLGDLGGRS”, the protein production was “failed”.
In the case of “MKRDHHQFQGRLSNHGTSSSSSSISKDKMMMVKKEEDGGGNMDDELLAVLGYKVRSSEMAEVALKLEQLETMMSNVQEDGLSHLATDTVHYNPSELYSWLDNMLSELNPPPLPASSNGLDPVLPSPEICGFPASDYDLKVIPGNAIYQFPAIDSSSSSNNQNKRLKSCSSPDSMVTSTSTGTQIGGVIGTTVTTTTTTTTAAGESTRSVILVDSQENGVRLVHALMACAEAIQQNNLTLAEALVKQIGCLAVSQAGAMRKVATYFAEALARRIYRLSPPQNQIDHCLSDTLQMHFYETCPYLKFAHFTANQAILEAFEGKKRVHVIDFSMNQGLQWPALMQALALREGGPPTFRLTGIGPPAPDNSDHLHEVGCKLAQLAEAIHVEFEYRGFVANSLADLDASMLELRPSDTEAVAVNSVFELHKLLGRPGGIEKVLGVVKQIKPVIFTVVEQESNHNGPVFLDRFTESLHYYSTLFDSLEGVPNSQDKVMSEVYLGKQICNLVACEGPDRVERHETLSQWGNRFGSSGLAPAHLGSNAFKQASMLLSVFNSGQGYRVEESNGCLMLGWHTRPLITTSAWKLSTAAY”, the protein production is reported as “failed”.
In the case of “MIGKVLEGRYEIVSELGGGGMARVYRGQDRLLNRNVTIKILREQYASDKEFLARFQREAQAVASLSHPNVVSIYDVGQEDDLHYLIMEYVEGRSLKDLISERAPLPPLEAIDISLQICDALEHAHENGVIHRDIKPHNILITRNGRVKVTDFGIAQAVSEVTMSQSGTMIGSVHYLAPEQARGGVIGATADIYSLGIVLYEMLTGDLPFHGETPVAVALKHLQENPRPVRELNPNVPPALERVVMRTLEKDPARRYPSAAALRSDLLAVRNALADATFATQVLPAIETPDPPSTLPKPRRRPRVWAWVLMALLFLGLAAAGLWAGFRYYLAVGETLVPSVVGLPEGQALEQLAAAGLRGQVIARQYDASVPAGQVMAQDPGPNQRVRRGRVVALTVSQGARLVRVPSVIGETERNARLILENANLKVAADTLKVYHPSIPAGSVVDQNPPANTQQPEGTEVRLIISKGPEPQFTTAPSVVGLSLAEAQQKLLEAKLKQGTLTYQRSDNQFPGYIIAQDPREGSNVLQGSAINLVVSQGPGPVQKQVGVTIDPAPDDKDHEVRIVVTDAKGTNEVLKKKQKMGQQIQATINYFGKGKLQVFRDGNVIYEQDLQ”, the protein production is reported as “failed”.
In the case of “MATEPLTHPTAAPKRTRDLLAGLSIAGLLLPEAVAYSSIAALPPQAGVIALFAGLLCYGLLGTSRFAIVSATSSSAAVLAAATLSLAGGDAQLRLSLAFALVLLTGVFFLLAGLFRLGGVTAFIAKPVLRGFAFGLALTIVLKQFATVVGVHLSTGNLVRFLPQLLEQWPQWNWAGAAVAAVALLVLGICSRIPYVPGGLVAVVIGIGAGQWFNLPAHGVDLIGVIELKLEVPSLPQLPFADWLRLGELAFALVMILYAESYGSISSFALKHGDRVSSNRDLLALGASNLLSGLFHGMPAGAGYSATSANEAAGARSRLAGLTAAAVMLLIVLTVLPYIALTPEPVLAAIVMYALGHGLSLQPLGRYFIWRRDRVLVICAVSAVLVLGVLDGLLLSVGISILLLLRQMSAADIQILGQLGSGHDFVDLSRHPQARQVPGVLILRPGEALFFANAERILGGALRLIRHVQAPIHSIILSLEESPDLDGTSIEALDEFFRQVSLEHKHLALARLKHEAKDALALLPSSREYQVLLSGTSVDDTLQESLRGWKAGAFSQA”, the protein production is reported as “failed”.
For “MAKTDARSPRTERGTIALQDASQDIWDKKYRLKSKDGTPVDASVDGTWQRVARALADVEDKASREHWYGRFLWALRNGAIPAGRIISNAGALGHKPATSTINCTVSGTIQDSMDNILEKVHEAGLTLKAGCGIGYEFSTLRPRGAYVSGAGAYTSGPLSFMDIYDKMCFTVSSAGGRRGAQMGTFDVSHPDVREFIRAKREDGRLRQFNLSLLITDQFMQAVEQDADWPLVFPVHVKERDEIDLDDPNAVVWREWPIQDDYVQRADGLVACKVYGQVRARHLWDMIMVSTYDYAEPGFILIDRVNELNNNWWCEAIRATNPCGEQPLPPYGSCLLGSVNLTCFVEQPFGDEARFDWDRFREVVRVFTRMLDNVVEINGLPLEQQRQEILGKRRHGMGFLGLGSTLTLLKLRYGSPEACVFTEEVAREMALVGWEVALELAREKGPAPILAQDYEVTAEMLRKRPEMAADGYKAGDRIRGSVLHAKYSRYMQRVAEHAPELIEALAETGARFTHHSSIAPTGTISLSLANNASNGIEPSFAHHYSRNLIREGRKTKEKVEVYSYELLAYRTLVNAQALPDSDDPARRLPDYFITADSVTPAQHMDIQAAAQKWVDSSISKTANVPTDYPFEDFKDIYRYAWHQGLKGCTTFRFNPEAFQGVLVKESDLEKTRYRFELEDGSVVEFKGNEQVEYDGEIHTAANLFDALKEGYYGK”, the protein production was “failed”.
With “MVSSVLPNPTSAECWAALLHDPMTLDMDAVLSDFVRSTGAEPGLARDLLEGKNWDLTAALSDYEQLRQVHTANLPHVFNEGRGPKQPEREPQPGHKVERPCLQRQDDIAQEKRLSRGISHASSAIVSLARSHVASECNNEQFPLEMPIYTFQLPDLSVYSEDFRSFIERDLIEQATMVALEQAGRLNWWSTVCTSCKRLLPLATTGDGNCLLHAASLGMWGFHDRDLVLRKALYTMMRTGAEREALKRRWRWQQTQQNKEEEWEREWTELLKLASSEPRTHFSKNGGTGGGVDNSEDPVYESLEEFHVFVLAHILRRPIVVVADTMLRDSGGEAFAPIPFGGIYLPLEVPPNRCHCSPLVLAYDQAHFSALVSMEQRDQQREQAVIPLTDSEHKLLPLHFAVDPGKDWEWGKDDNDNARLAHLILSLEAKLNLLHSYMNVTWIRIPSETRAPLAQPESPTASAGEDVQSLADSLDSDRDSVCSNSNSNNGKNGKDKEKEKQRKEKDKTRADSVANKLGSFSKTLGIKLKKNMGGLGGLVHGKMGRANSANGKNGDSAERGKEKKAKSRKGSKEESGASASTSPSEKTTPSPTDKAAGASPAEKGGGPRGDAWKYSTDVKLSLNILRAAMQGERKFIFAGLLLTSHRHQFHEEMIGYYLTSAQERFSAEQEQRRRDAATAAAAAAAAAAATAKRPPRRPETEGVPVPERASPGPPTQLVLKLKERPSPGPAAGRAARAAAGGTASPGGGARRASASGPVPGRSPPAPARQSVIHVQASGARDEACAPAVGALRPCATYPQQNRSLSSQSYSPARAAALRTVNTVESLARAVPGALPGAAGTAGAAEHKSQTYTNGFGALRDGLEFADADAPTARSNGECGRGGPGPVQRRCQRENCAFYGRAETEHYCSYCYREELRRRREARGARP” the protein production was “failed”.
For “MSLVRSKAPLRLGLAGGGSDVSPYSDIYGGLILNATINLYAYCTIEETNSGRIEINAYDAQCCKSYLSMSQLEIDGEASLIKGVYNRIIRDYRLEPKSFKITTYNDAPAGSGLGTSSTMVVCILKAFIEWLSLPLGDYETSRLAYEIERKDLGLSGGKQDQYAAAFGGFNYMEFLQNDLVIVNPLKMKRWIVDELESSMVLYFTGRSRSSAAIINEQKKNTSEGNQTAIEAMHKIKQSAIDTKLALLKGDVGEFARILGEGWENKKKMAGAITNPMIQEAFDVATGAGAMAGKVSGAGGGGFIMFVVEPTRKEEVVRALNNLNGFVMPFQFIDDGAHGWKIYSTDKVQKEGHHHHHH”, the protein production was “not failed”.
In the case of “MMPYITDIAALEHVGVAAAWTEKVPAFRVLREKRMLDFRAPITVITGENGVGKSTLLEAIAINAGFDTAGGEHTGKFKPSDNPLQTVAKAHKGKEPMRGYFLRAETHFNVASGYRDEAPGWVNLHHMSHGESVMHIVQNAFVGKGLYLMDEPEAGLSFIRQMAILAELNFLAESGAQIIIVTHSPVLMAIPGAEIWEFSASGELHRGFDFEVTTAFRALRDFFEDPEEIAEYMMDVMMDNKGESLEHHHHHH”, the protein production is reported as “failed”.
In the case of “MGRTPETHVIDFRAAEQLLAARDPRGAVKLLDPVIAAHPENTAARLLRARAFFAAAQLRPAELEFTIVLEREPDNAFAHFALARTYERQLRPDQAKRHFRLAAALDPNPQYLKAARLEHHHHHH”, the protein production is reported as “not failed”.
With “MKKRHLLIAGLACMTILGACNNDDAGSSGQAVVEVDGHEISDAEFVDMLKERYGEAILQELVQRHLISQAADSVEIPQEEIDEELETFKSQIGVETDDEMLDALSNQFGITVENKEEFVNEYILPPLVLEKLAVEGVEITDEEKQAYFDENRDSLIEVEASHILVEDEETAEEVLDRLEAGDDFAELASEYSVDPSAEANNGDLGFFGKGDMVPEFEEAAFNMEIDEVSEPVESTYGYHIILVTDRKDSYEELEEKIHDTLMRERSRTQEEVLRDLLAQADINVLDDQFEGLFDLPDAPPVEDTPEIDGEDASDEAEDQAEDADENAEEEDES” the protein production was “failed”.

Reference: a protein production outcome set (Wang et al. 2014)
